Test results reported in US20180088134A1.

Key:
[1] = biological target: non-mutated human leptin (human) (UniProt P41159); test: receptor-Fc ELISA value divided by anti-leptin antibody ELISA value; sample 10, blood donor serum/plasma
[2] = biological target: non-mutated human leptin (human) (UniProt P41159); test: receptor-Fc ELISA value divided by anti-leptin antibody ELISA value; WHO standard 6 ng/ml
[3] = biological target: non-mutated human leptin (human) (UniProt P41159); test: ELISA, plate-bound leptin receptor-Fc; sample 9, blood donor serum/plasma DO-2226
[4] = biological target: non-mutated human leptin (human) (UniProt P41159); test: receptor-Fc ELISA value divided by anti-leptin antibody ELISA value; sample 11, blood donor serum/plasma
[5] = biological target: non-mutated human leptin (human) (UniProt P41159); test: ELISA, plate-bound leptin receptor-Fc; sample 11, blood donor serum/plasma IDB-8960
[6] = biological target: non-mutated human leptin (human) (UniProt P41159); test: ELISA, plate-bound leptin receptor-Fc; sample 4, purified recombinant leptin
[7] = biological target: non-mutated human leptin (human) (UniProt P41159); test: receptor-Fc ELISA value divided by anti-leptin antibody ELISA value; sample 8, blood donor serum/plasma
[8] = biological target: non-mutated human leptin (human) (UniProt P41159); test: receptor-Fc ELISA value divided by anti-leptin antibody ELISA value; WHO standard 2 ng/ml
[9] = biological target: non-mutated human leptin (human) (UniProt P41159); test: ELISA, plate-bound leptin receptor-Fc; sample 7, WHO standard NIBSC 97/594, nominal 6 ng/ml
[10] = biological target: non-mutated human leptin (human) (UniProt P41159); test: ELISA, plate-bound leptin receptor-Fc; sample 6, WHO standard NIBSC 97/594, nominal 2 ng/ml
[11] = biological target: non-mutated human leptin (human) (UniProt P41159); test: receptor-Fc ELISA value divided by anti-leptin antibody ELISA value; sample 12, blood donor serum/plasma
[12] = biological target: non-mutated human leptin (human) (UniProt P41159); test: receptor-Fc ELISA value divided by anti-leptin antibody ELISA value; sample 1, HEK293 supernatant
[13] = biological target: non-mutated human leptin (human) (UniProt P41159); test: receptor-Fc ELISA value divided by anti-leptin antibody ELISA value; sample 9, blood donor serum/plasma
[14] = biological target: non-mutated human leptin (human) (UniProt P41159); test: ELISA, plate-bound leptin receptor-Fc; sample 10, blood donor serum/plasma IDB-883-
[15] = biological target: non-mutated human leptin (human) (UniProt P41159); test: ELISA, plate-bound leptin receptor-Fc; sample 12, blood donor serum/plasma BB-3935
[16] = biological target: non-mutated human leptin (human) (UniProt P41159); test: ELISA, plate-bound leptin receptor-Fc, detection with polyclonal anti-leptin; sample 1, HEK293 supernatant
[17] = biological target: non-mutated human leptin (human) (UniProt P41159); test: ELISA, plate-bound leptin receptor-Fc; sample 8, blood donor serum/plasma CS-2

Sequence of UniProt P41159 (P41159 22-167, change not shown): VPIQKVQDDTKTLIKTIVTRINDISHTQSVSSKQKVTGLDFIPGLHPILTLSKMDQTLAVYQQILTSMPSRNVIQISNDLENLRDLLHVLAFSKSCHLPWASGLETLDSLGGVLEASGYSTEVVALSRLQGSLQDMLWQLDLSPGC

quotient of functional leptin and total leptin [1]: 0.87 | quotient of functional leptin and total leptin [2]: 0.99 | measured value functional leptin (concentration read from standard curve) [3]: 4.61 ng/mL | quotient of functional leptin and total leptin [4]: 0.96 | measured value functional leptin (concentration read from standard curve) [5]: 24 ng/mL | measured value functional leptin (concentration read from standard curve) [6]: 278 µg/mL | quotient of functional leptin and total leptin [7]: 1.14 | quotient of functional leptin and total leptin [8]: 0.99 | measured value functional leptin (concentration read from standard curve) [9]: 6.05 ng/mL | measured value functional leptin (concentration read from standard curve) [10]: 1.83 ng/mL | quotient of functional leptin and total leptin [11]: 0.98 | quotient of functional leptin and total leptin [12]: 0.85 | quotient of functional leptin and total leptin [13]: 0.91 | measured value functional leptin (concentration read from standard curve) [14]: 7.25 ng/mL | measured value functional leptin (concentration read from standard curve) [15]: 34.1 ng/mL | measured value functional leptin (concentration read from standard curve) [16]: 490 ng/mL | measured value functional leptin (concentration read from standard curve) [17]: 2.81 ng/mL
Substance: Recombinant Human Leptin R Fc Chimera, Catalog Number 389-LR/CF, R & D Systems (amino acid sequence Thr20-Asp839 of the human leptin receptor) (from UniProt P48357 20-839) (Fc fusion)
